# Results from paper PMC8609364, “A Selective Tether Recruits Activated Response Regulator CheB to Its Chemoreceptor Substrate” (mBio, 2021).
# Like-named read-outs stand apart in the source and are kept apart here. Ends that are not written are not given here.
# T1: methylesterase/deamidase CheB from E. coli, low-activity, unphosphorylated form (E. coli, UniProt P07330 1-349)
# T1 construct: CheB methylesterase/deamidase of E. coli, unphosphorylated, from plasmid pCW/cheB; measured with 2 mM DTT in the buffer; also called low-activity CheB; unmodified CheB; source: E. coli K-12 RP3098 with pCW/cheB, purified
# T1 sequence (looked up): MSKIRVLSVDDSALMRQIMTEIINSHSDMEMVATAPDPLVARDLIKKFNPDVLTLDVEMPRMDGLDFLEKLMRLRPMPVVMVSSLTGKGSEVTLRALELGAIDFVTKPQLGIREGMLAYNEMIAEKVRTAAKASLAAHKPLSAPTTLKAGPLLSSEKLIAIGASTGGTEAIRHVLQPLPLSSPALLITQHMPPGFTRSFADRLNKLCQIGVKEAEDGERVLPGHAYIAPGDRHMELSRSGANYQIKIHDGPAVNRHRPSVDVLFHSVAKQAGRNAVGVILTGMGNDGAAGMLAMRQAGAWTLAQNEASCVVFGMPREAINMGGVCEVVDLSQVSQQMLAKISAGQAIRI
# B1: CheB from Pseudomonas aeruginosa (protein, UniProt O87125 1-368, looked up)
# Protein-glutamate …: MAVKVLVVDDSGFFRRRVSEILSADGQIQVVGTGTNGREAIEQALALRPDVITMDYEMPLMDGITAVRNIMQRCPTPVLMFSSLTHEGARVTLDALDAGAVDYLPKNFEDISRNPDKVRQLLCEKVLTIARSNRRSISLPPLPSATSSSHAPASSSSVGASARVGAGASPAPASTSAAPKRKAYRLVAIGTSTGGPVALQRVLTQLPANFPAPLVLIQHMPAAFTKAFAERLDKLCRINVKEAEDGDILRPGLALLAPGGKQMMVDGRGTVRILPGDERLNYKPCVDVTFGSAAKAYNDKVLAVVLTGMGADGREGARLLKQGGSQVWAQDEASCVIYGMPMAVVKANLADAVYGLDDIGRHLVEACQ
# B2: NWETF pentapeptide tethered to the sensor surface via a linker (peptide)
# peptide: NWETF
# modifications: also: tethered to sensor surface via a linker (not described)
# notes: carboxyl-terminal pentapeptide of the E. coli chemoreceptor Tar; also called pentapeptide alone
# Legend:
# [1] = target: Tar4Q L378C, E. coli aspartate chemoreceptor Tar, all-glutaminyl form with carboxyl-terminal pentapeptide, homodimer in Nanodiscs (E. coli) (UniProt P07017); test: BLI; BLItz; biotinylated Tar homodimers in Nanodiscs held on an avidin sensor tip, CheB-P* or CheB-P*-I in solution; 50 mM Tris-HCl pH 7.5, 10% glycerol, 5 mM MgCl2, 50 mM KCl, 2% BSA, no DTT; global fit, apparent rate constants, KD calculated from kon and koff
# [2] = target: Tar4E L378C, E. coli aspartate chemoreceptor Tar, all-glutamyl form with carboxyl-terminal pentapeptide, homodimer in Nanodiscs (E. coli) (UniProt P07017); test: as above
# [3] = system: CheB binding to pentapeptide; set-up: method as in PMID 11435446; settings: ref [11]; cited from earlier work
# [4] = target: Tar4EΔpp-6H L378C, E. coli Tar lacking the carboxyl-terminal pentapeptide, all-glutamyl form, homodimer in Nanodiscs (E. coli) (UniProt P07017); test: BLI; BLItz; biotinylated Tar homodimers in Nanodiscs held on an avidin sensor tip, CheB-P* or CheB-P*-I in solution; 50 mM Tris-HCl pH 7.5, 10% glycerol, 5 mM MgCl2, 50 mM KCl, 2% BSA, no DTT; global fit, apparent rate constants, KD calculated from kon and koff
# [5] = target: Tar4QΔpp-6H L378C, E. coli Tar lacking the carboxyl-terminal pentapeptide, all-glutaminyl form, homodimer in Nanodiscs (E. coli) (UniProt P07017); test: as above
# [6] = target: CheB; settings: low-activity, unphosphorylated CheB from E. coli; ref [21]; read-out: dissociation constants; cited from earlier work
# Source text: (§1) CheB is a two-domain protein, with an amino-terminal response regulator domain attached by a linker sequence to a carboxyl-terminal catalytic domain ([17]) (Fig. 1B). Phosphorylation of the response regulator domain by the chemotaxis histidine kinase creates a high-activity form of the methylesterase ([6]), shifting interaction between the two domains to an “open” conformation that relieves occlusion of the active site by the regulatory amino-terminal domain ([18], [19]). The enzyme binds its substrate chemoreceptor side chains with the surfaces surrounding its active site ([20]). In contrast, ...
# [7] = system: CheB; settings: position 132; ref [11]; cited from earlier work
# [8] = target: unphosphorylated CheB; settings: isothermal titration calorimetry, free pentapeptide, ref [21], read-out: equilibrium dissociation constant; cited from earlier work
# Description: (§2) We measured binding of the low-activity, unphosphorylated form of CheB to the NWETF pentapeptide tethered to the sensor surface via a linker or in its native position at the carboxyl terminus of Tar4E or Tar4Q ([23]). Equilibrium dissociation constants were essentially the same for all conditions, 190 ± 85 μM for pentapeptide alone, and 230 ± 70 and 160 ± 30 for the pentapeptide on Tar4E or Tar4Q, respectively (Table 1). Within the error of the measurements, these values corresponded to those previously determined for free pentapeptide binding to unphosphorylated CheB by isothermal titration c ...
# [9] = target: unphosphorylated CheB; settings: equilibrium dialysis, free pentapeptide, ref [21], read-out: equilibrium dissociation constant; cited from earlier work
# [10] = target: CheB; test: Binding of CheB to NWETF pentapeptide tethered to the sensor surface via a linker (biolayer interferometry); set-up: species or system E. coli; settings: BLI, low-activity, unphosphorylated CheB, read-out: Equilibrium dissociation constant, pentapeptide alone
# Description: as §2, with “1).” for “1). Within the error of the measurements, these values corresponded to those previously determined for free pentapeptide binding to unphosphorylated CheB by isothermal titration c ...”
# Kinetics of CheB association and dissociation with Nanodisc-embedded Tar biotinylated at L378C were determined using biolayer interferometry ([22], [23]) as measured by a BLItz instrument (ForteBio, Menlo Park, CA, USA) and described in reference. Representative time course experiments are shown in Fig. S1 in the supplemental material. Measurements for CheB-P* and CheB-P*-I were in 50 mM Tris-HCl (pH 7.5), 10% (wt/vol) glycerol, 5 mM MgCl2, 50 mM KCl, and 2% (wt/vol) bovine serum albumin (BSA). Measurements for CheB and CheBc were in the same solution plus 2 mM dithiothreitol (DTT).
# Using BLItz software, response curves were fit globally to a 1:1 binding model to yield apparent association rate constants (kon) and dissociation rate constants (koff). […]
# [11] = low-activity, unphosphorylated CheB; ref [16]; read-out: dissociation constant; cited from earlier work
# Source text: as §1
# [12] = target: T1, methylesterase/deamidase CheB from E. …; test: BLI; BLItz; NWETF pentapeptide tethered to the sensor surface via a linker, CheB in solution; apparent rate constants, KD calculated from kon and koff; settings: both partners purified
molecule,measurement,setting,value
"CheB-P*-I, enzymatically inactive phosphorylation mimic, Salmonella CheB D56C/S164A/C207S/C309S modified with thiophosphate (from UniProt P04042 1-349) (enzyme)",fold reduction of KA against CheB-P*,[1],2.5 fold
same,fold reduction of KA against CheB-P*,[2],2.5 fold
"peptide from CheB residues 130 through 140 (AAKASLAAHKP; UniProt P07330 130-140, looked up, fragment)",reduction of binding of intact enzyme to pentapeptide,[3],reduced binding of intact enzyme to pentapeptide
"CheB-P*, phosphorylation mimic of Salmonella CheB D56C/C207S/C309S modified with thiophosphate (from UniProt P04042 1-349) (enzyme)",Kd,[1],13 µM
same,dwell time (1/koff),[1],3 s
same,Kd,[4],200 µM
same,Kd,[5],200 µM
same,Kd,[2],13 µM
same,dwell time (1/koff),[2],3 s
NWETF [NWETF],Kd,[6],130 to 160 µM
same,protection of intact CheB from limited proteolysis,[7],protected intact CheB from limited proteolysis at position 132
same,Kd,[8],160 µM
same,Kd,[9],130 µM
same,Kd,[10],190 ± 85 µM
B1,Kd,[11],~90 µM
B2,Kd,[12],190 µM
